Patent publication US20140010886A1, “COMPOSITIONS COMPRISING SACCHARIDE BINDING MOIETIES AND METHODS FOR TARGETED THERAPY” (GEORGIA TECH RESEARCH CORPORATION, priority 2011, published 2014)

B1: PNA: lectin peanut agglutinin, recognizes the glycan moiety GalNAc (protein, UniProt P02872 24-273, looked up)
Galactose-binding lectin: AETVSFNFNSFSEGNPAINFQGDVTVLSNGNIQLTNLNKVNSVGRVLYAMPVRIWSSATGNVASFLTSFSFEMKDIKDYDPADGIIFFIAPEDTQIPAGSIGGGTLGVSDTKGAGHFVGVEFDTYSNSEYNDPPTDHVGIDVNSVDSVKTVPWNSVSGAVVKVTVIYDSSTKTLSVAVTNDNGDITTIAQVVDLKAKLPERVKFGFSASGSLGGRQIHLIRSWSFTSTLITTTRRSIDNNEKKIMNMASA
B2: ECL: erythrina cristagalli lectin, recognizes the glycan moiety GlcNAc (protein, listed as Homo sapiens)
chain: VETISFSFSEFEPGNNDLTLQGAAIITQSGVLQLTKINQNGMPAWDSTGRTLYTKPVHIWDMTTGTVASFETRFSFSIEQPYTRPLPADGLVFFMGPTKSKPAQGYGYLGVFNNSKQDNSYQTLAVEFDTFSNPWDPPQVPHIGIDVNSIRSIKTQPFQLDNGQVANVVIKYDASSKILLAVLVYPSSGAIYTIAEIVDVKQVLPEWVDVGLSGATGAQRDAAETHDVYSWSFHASLPETND

Assays:
[1] = test system: DBA positive sorted cells (CTB-1 GBM-CSCs); experiment: Lectin reactivity of DBA positive sorted GBM-CSCs (flow cytometry); format: binding, human; settings: for lectin reactivity of DBA positive sorted cells: day 1; for lectin reactivity of DBA positive sorted cells by day 12: day 12 of differentiation
Text: The percent of cells with specific carbohydrate expression as determined by flow cytometry using 8 different lectins. The data are means+/−SD of 3 independent assays of CTB-1 GBM-CSCs. CTB-1 cell line was stained with CD133, OCT4, and SOX2 antibody in addition to lectin staining Statistical significance (p≦0.05) is indicated by asterisk.
DBA lectin positive cells made up less than 1% of the total population and phenotypically appeared to proliferate at a much slower rate than the DBA negative population. […] Increased proliferation in DBA negative populations can be visualized via microscopy at day 1 and day 12 (FIG. 7). At day 12 the DBA negative population appears to be denser than the DBA positive population (FIG. 7), however, both populations are able to produce GFAP positive cells (Astrocytes) identical to the CD133 positive sorted cells (FIG. 7). […] DBA negative sorted cells contradict the aforementioned, and show low reaction towards GalNAc and GlcNAc recognizing lectins and this continues to decrease by day 12 (FIG. 8B). Con A remains high throughout in both populations and serves as a positive control (FIGS. 8A and 8B). However, GBM-CSC marker CD133-G and general stem cell markers OCT 4 and SOX 2 are high in the DBA positive sorted cells, and similar to DBA reactivity, decreases substantially by day 12 of differentiation (FIG. 8A). However, in the DBA negative population these stem cell markers uniformly are low at day one and are almost non-existent by day 12 (FIG. 8A). Until now CD133 has been considered the only marker for CSCs derived from GBM brain tumors. However, using cell sorting technology, DBA lectin, which recognizes GalNAc, we were able to separate CD133^+ cells from CD133− cells.

CD133+ GBM-CSCs = experiment: Lectin panel labeling of CD133+ GBM-CSCs during differentiation (flow cytometry); format: binding, human; settings: for recognition of GBM-CSCs by lectin after differentiation: after 12 days of differentiation; for recognition of undifferentiated GBM-CSCs by lectin: day 1, undifferentiated CD133+ GBM-CSCs
Method: The fact that lectin moieties recognize carbohydrates located on the surface of cells makes them a great tool to identify changes in glycosylation patterning during differentiation. We used a panel of 20 lectins to study the patterning of CD133^+ GBM-CSCs surface glycosylation during differentiation (Table 1). Neurospheres derived from CD133^+ GBM-CSCs were grown as mentioned above and were plated onto polyornithin and laminin coated tissue culture grade plastics. Within 10 hours the neuroshperes adhered and neurite formations were observed. Differentiation continued for 12 days, and harvested cells (day 1 and day 12) were labeled with our panel of lectins (FIG. 2A). […] Furthermore, the recognition and decrease in recognition of GalNAc and GlcNAc coincide with the expression of GBM-CSC marker CD133-glycosylation (CD133-G) and general stem cell markers OCT 4 and SOX2 (FIG. 3C). OCT 4 and SOX2 have been well studied in GBMs and are accepted indicators of sternness in GBM cell lines.

Molecule | lectin reactivity of DBA positive sorted cells [1] | lectin reactivity of DBA positive sorted cells by day 12 [1] | recognition of GBM-CSCs by lectin after differentiation (CD133+ GBM-CSCs) | recognition of undifferentiated GBM-CSCs by lectin (CD133+ GBM-CSCs)
SBA: lectin soybean agglutinin, recognizes the glycan moiety GalNAc | high reactivity | decrease | markedly decreased | highly recognized
B1 | high reactivity | decrease | markedly decreased | highly recognized
B2 | highly reactive | decreased | noticeably decreased | highly recognized
